From the supplement of paper PMC9170038

Test system: MS2 coat protein
Assay: apparent KD of MS2 coat protein; designed switch direction (-1 OFF switch, 1 ON switch): 1; higher = weaker reporter binding
How it was run: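 Designed RNA switches with common flanks were transcribed on Illumina chips by stalled E. coli RNA polymerase and titrated with SNAP-549-labelled MS2 coat protein, from 0.7 or 1.5 nM doubling to 3 µM, in Tris-HCl pH 7.5 buffer with KCl, MgCl2, BSA, DTT, tRNA and Tween-20. Steps lasted 0.8–1.5 h (lowest) to 10–20 min (highest). Titrations ran without input, with 200 uM small-molecule ligand, or with an oligonucleotide input. Normalised cluster fluorescence was curve-fitted, and apparent KD is the per-design median over clusters.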

[1] = Eterna round: R95, input ligand: FMN 200 uM
[2] = Eterna round: R95, input ligand: microRNA oligo, concentration not stated
[3] = Eterna round: R95, input ligand: none
[4] = input ligand: microRNA oligo, concentration not stated

| Sequence | apparent KD of MS2 coat protein [1] [nM] | apparent KD of MS2 coat protein [2] [nM] | apparent KD of MS2 coat protein [3] [nM] | apparent KD of MS2 coat protein [4] [nM] | apparent KD of MS2 coat protein (input ligand: FMN 200 uM) [nM] | apparent KD of MS2 coat protein (input ligand: none) [nM] |
| --- | --- | --- | --- | --- | --- | --- |
| AGUCCAGCGAAAGCUGGACAAAAGCAUGUACAUGAGGAUCACCCAUGUUCAUGUACAAGCUUUUUGUUCGUCUUAAA [JL mod - D95 - 14] (puzzle: Sensor for hsa-mir-208a) | 314 | 13.4 | 601 | – | – | – |
| AGUCCAGCGAAAGCUGGACAAAAGCAUGUACAUGAGGAUCACCCAUGUUCAUGUACAGGCUUUUUGCUCGUCUUAAA [JL mod - D95 - 8] (puzzle: Sensor for hsa-mir-208a) | 243 | 12.6 | 175 | – | – | – |
| AGUCCAGCGAAAGCUGGACAAAAGCAUGUACAUGAGGAUCACCCAUGUUCAUGUAUAAGCUUUUUGCUCGUCUUAAA [JL mod - D95 - 12] (puzzle: Sensor for hsa-mir-208a) | 18.1 | 9.2 | 15.9 | – | – | – |
| AGUCCAGCGAAAGCUGGACAAAAGCAUGUACAUGAGGAUCACCCAUGUUCAUGUAUAAGCUUUUUGCUCGUUUUAAA [JL mod - D95 - 17] (puzzle: Sensor for hsa-mir-208a) | 16.2 | 10.2 | 15.9 | – | – | – |
| AGUCCAGCGAAAGCUGGACAAAAGCAUGUACAUGAGGAUCACCCAUGUUUAUGUACAAGCUUUUUGCUCGUCUUAAA [JL mod - D95 - 11] (puzzle: Sensor for hsa-mir-208a) | 274 | 14.2 | 300 | – | – | – |
| AUAAAACAUGAGGAUCACCCAUGUCAACAAAGUCGAGGAUAUGGGCAAAUAAAAUAAGAAUCAGAAGGCGAAUAAU [salish99_ss1_r3_030] (puzzle: Same State 1) | 265 | 330 | 404 | – | – | – |
| AUAAAACAUGAGGAUCACCCAUGUCAACAAAGUCGAGGAUAUGGGCAAAUAAAAUUAGAACCAGAAGGCGAAUAAU [salish99_ss1_r3_020] (puzzle: Same State 1) | 34.4 | 330 | 379 | – | – | – |
| AUAAAACAUGAGGAUCACCCAUGUCAACAAAGUCGAGGAUAUGGGCAAAUAAAUUAAGAACCAGAAGGCGAAUAAU [salish99_ss1_r3_021] (puzzle: Same State 1) | 36.9 | 236 | 313 | – | – | – |
| AUAAAACAUGAGGAUCACCCAUGUCAACAAAGUCGAGGAUAUGGUCAAAUAAAAUAAGAACCAGAAGGCGAAUAAU [salish99_ss1_r3_029] (puzzle: Same State 1) | 17.8 | 26.3 | 25.3 | – | – | – |
| AUAAAACAUGAGGAUCACCCAUGUCAAUAAAGUCGAGGAUAUGGGCAAAUAAAAUAAGAACCAGAAGGCGAAUAAU [salish99_ss1_r3_042] (puzzle: Same State 1) | 33.2 | 217 | 206 | – | – | – |
| AUAAGGCAAGCUUUUUUCUCGUAGUGUAAACAUGAGGAUCACCCAUGUGCCCACCCUGGAUCUUUGAAUCGCAGAAC [Dianancete] (puzzle: Sensor for hsa-mir-208a) | 26.7 | 16.6 | 27.3 | – | – | – |
| AUAAGGCAAGCUUUUUUCUCGUAGUGUAAACAUGAGGAUCACCCAUGUGCCCACCCUGGAUCUUUGGAUCGCAGAAC [Sobiisarre] (puzzle: Sensor for hsa-mir-208a) | 20.3 | 15.2 | 22.7 | – | – | – |
| AUAAGUUCGAUGCUCGUCUCUCCGUACAAACAUGAGGAUCACCCAUGUGGCCGGGAAGUAGCCCGACCAGUAUGGCC [Tearbeorve] (puzzle: Sensor for hsa-mir-208a) | 38.6 | 27.1 | 45.2 | – | – | – |
| AUAAGUUCGAUGCUCGUCUCUCCGUACAAACAUGAGGAUCACCCAUGUGGUCGGGAAGUAGCCCGGCCAGUAUGACC [Arbesoce] (puzzle: Sensor for hsa-mir-208a) | 31.2 | 22 | 29 | – | – | – |
| AUAAGUUUGAUGCUCGUCUCUCCGUACAGACAUGAGGAUCACCCAUGUAGUCAGGAAGUAGCCUGGCCAGUAUGGCC [Berave] (puzzle: Sensor for hsa-mir-208a) | 27.5 | 16.6 | 31.1 | – | – | – |
| AUAAUACAUGAGGAUCACCCAUGUAAUUUAACUUGUAAGAUCAAGGAUAUCAGCUCGAUUAGAGCUGAGAAGGUGAUCACAUGU [SSNG3/20-A2] (Eterna round: R96, puzzle: Same State NG 3) | – | – | – | 69.1 | – | – |
| AUACAUAUCAGAGGAUAUCACGUCGAUUAGACGUGAGAAGGCUGAUCACACAUGAAUAUUAAUACAUGAGGAUCACCCAUGUAU [SSNG1/14-A2] (Eterna round: R96, puzzle: Same State NG 1) | – | – | – | 14.8 | 20.6 | 18.8 |
| AUAGUUUCCGAAGGAUAUGAUGAGGAUCACCCAUCAGAAGGUUGGCUAUUGGGCUGACAUGAGGAUCACCCAUGUUCUGGUGUU (Eterna round: R96, puzzle: Same State NG 1) | – | – | – | 33.2 | 39.1 | 57 |
| AUAUGAGAAGCAGGAUAUGUGGAGAAGAAACAAACAGAAGGGUUUAUGGGACAACAUGAGGAUCACCCAUGUUCUCUGUGAUGA [AK SSNG1-V2-2] (Eterna round: R96, puzzle: Same State NG 1) | – | – | – | 44.3 | 52.5 | 59.2 |
| AUAUGAGAAGCAGGAUAUGUGGAGAAGAAAGAAACAGAAGGGCUUAUGGGACAACAUGAGGAUCACCCAUGUUCUCUGUGAUGA [AK SSNG1-V2-2.1] (Eterna round: R96, puzzle: Same State NG 1) | – | – | – | 144 | 42.8 | 188 |
| AUGAAGAAUUAAGGAUAUUGAAUACAUAUGUUUAACAUGAGGAUCACCCAUGUGGGUUGCGGUAUCGAGAAGGUAAAAUAAUAG [Mat - same State NG 2 - JL mod - D91] (Eterna round: R96, puzzle: Same State NG 2) | – | – | – | 79.4 | 162 | 136 |
